Test results reported in patent US20150139996A1.
Where two headings read alike, the source gives them in different places. One block for each substance: values may come before it.

Assays:
[1] = target: IgG1 heavy chain with CH3 construct 64 (T366D) (human) [IgG part: P01857]; test: SDS-PAGE of protein A-purified supernatant; construct expressed alone
[2] = target: IgG1 heavy chain with CH3 construct 64 (T366D) (human) [IgG part: P01857]; test: native MS; transfection ZP: vectors XIV+XVII co-expressed
[3] = target: IgG1 heavy chain with CH3 construct 64 (T366D) (human) [IgG part: P01857]; test: native MS; combination 16 co-expressed (A: VH MF1337, B: VH MF1122)
[4] = target: IgG1 heavy chain with CH3 construct 77 (L351R) (human) [IgG part: P01857]; test: as above
[5] = target: IgG1 heavy chain with CH3 construct 76 (L351K, L368K) (human) [IgG part: P01857]; test: native MS; combination 15 co-expressed (A: VH MF1337, B: VH MF1122)
[6] = target: IgG1 heavy chain with CH3 construct 64 (T366D) (human) [IgG part: P01857]; test: as above
[7] = target: IgG1 heavy chain with CH3 construct 72 (L351D, R355D) (human) [IgG part: P01857]; test: SDS-PAGE of protein A-purified supernatant; construct expressed alone
[8] = target: IgG1 heavy chain with CH3 construct 72 (L351D, R355D) (human) [IgG part: P01857]; test: native MS; combination 8 co-expressed (A: VH MF1337, B: VH MF1122)
[9] = target: IgG1 heavy chain with CH3 construct 5 (E356K, E357K, K439D, K370D) (human) [IgG part: P01857]; test: native MS; transfection O: vectors I+II+III co-expressed 1:1:1
[10] = target: IgG1 heavy chain with CH3 construct 5 (E356K, E357K, K439D, K370D) (human) [IgG part: P01857]; test: native MS; transfection V: vectors I+II+III co-expressed 1:1:10
[11] = target: IgG1 heavy chain with CH3 construct 5 (E356K, E357K, K439D, K370D) (human) [IgG part: P01857]; test: native MS; transfection H: vector III alone (VH MF1122, construct 5)
[12] = target: IgG1 heavy chain with CH3 construct 5 (E356K, E357K, K439D, K370D) (human) [IgG part: P01857]; test: native MS; transfection N: vectors I+III co-expressed 1:1
[13] = target: IgG1 heavy chain with CH3 construct 5 (E356K, E357K, K439D, K370D) (human) [IgG part: P01857]; test: native MS; transfection U: vectors I+III co-expressed 1:5
[14] = target: IgG1 heavy chain with CH3 construct 4 (K392D, D399K, K409D) (human) [IgG part: P01857]; test: native MS; transfection O: vectors I+II+III co-expressed 1:1:1
[15] = target: IgG1 heavy chain with CH3 construct 4 (K392D, D399K, K409D) (human) [IgG part: P01857]; test: native MS; transfection V: vectors I+II+III co-expressed 1:1:10
[16] = target: IgG1 heavy chain with CH3 construct 4 (K392D, D399K, K409D) (human) [IgG part: P01857]; test: native MS; transfection G: vector II alone (VH MF1025, construct 4)
[17] = target: IgG1 heavy chain with CH3 construct 4 (K392D, D399K, K409D) (human) [IgG part: P01857]; test: native MS; transfection M: vectors I+II co-expressed 1:1
[18] = target: IgG1 heavy chain with wildtype CH3 (construct vector MV1057, wildtype IgG1 Fc) (human) [IgG part: P01857]; test: native MS; transfection O: vectors I+II+III co-expressed 1:1:1
[19] = target: IgG1 heavy chain with wildtype CH3 (construct vector MV1057, wildtype IgG1 Fc) (human) [IgG part: P01857]; test: native MS; transfection V: vectors I+II+III co-expressed 1:1:10
[20] = target: IgG1 heavy chain with wildtype CH3 (construct vector MV1057, wildtype IgG1 Fc) (human) [IgG part: P01857]; test: native MS; transfection A: vector I alone (VH MF1337, wildtype CH3)
[21] = target: IgG1 heavy chain with wildtype CH3 (construct vector MV1057, wildtype IgG1 Fc) (human) [IgG part: P01857]; test: native MS; transfection N: vectors I+III co-expressed 1:1
[22] = target: IgG1 heavy chain with wildtype CH3 (construct vector MV1057, wildtype IgG1 Fc) (human) [IgG part: P01857]; test: native MS; transfection U: vectors I+III co-expressed 1:5
[23] = target: IgG1 heavy chain with wildtype CH3 (construct vector MV1057, wildtype IgG1 Fc) (human) [IgG part: P01857]; test: native MS; transfection M: vectors I+II co-expressed 1:1
[24] = target: IgG1 heavy chain with CH3 construct 63 (L351D) (human) [IgG part: P01857]; test: native MS; transfection ZW (1:1): vectors XIII+XVI co-expressed
[25] = target: IgG1 heavy chain with CH3 construct 63 (L351D) (human) [IgG part: P01857]; test: SDS-PAGE of protein A-purified supernatant; construct expressed alone
[26] = target: IgG1 heavy chain with CH3 construct 63 (L351D) (human) [IgG part: P01857]; test: native MS; transfection ZV (1:3): vectors XIII+XVI co-expressed
[27] = target: IgG1 heavy chain with CH3 construct 63 (L351D) (human) [IgG part: P01857]; test: native MS; transfection ZO (1:1): vectors XIII+XVI co-expressed
[28] = target: IgG1 heavy chain with CH3 construct 63 (L351D) (human) [IgG part: P01857]; test: native MS; combination 2 co-expressed (A: VH MF1337, B: VH MF1122)
[29] = target: IgG1 heavy chain with CH3 construct 63 (L351D) (human) [IgG part: P01857]; test: native MS; transfection ZU (1:1): vectors XIII+XVI co-expressed
[30] = target: IgG1 heavy chain with CH3 construct 63 (L351D) (human) [IgG part: P01857]; test: native MS; combination 7 co-expressed (A: VH MF1337, B: VH MF1122)
[31] = target: IgG1 heavy chain with CH3 construct 63 (L351D) (human) [IgG part: P01857]; test: native MS; transfection ZT (3:1): vectors XIII+XVI co-expressed
[32] = target: IgG1 heavy chain with CH3 construct 65 (S354D, Y349D) (human) [IgG part: P01857]; test: native MS; transfection ZQ: vectors XII+XVIII co-expressed
[33] = target: IgG1 heavy chain with CH3 construct 1 (E356K, D399K) (human) [IgG part: P01857]; test: native MS; transfection T: vectors IV+VII+VIII 2:1:1; homodimer of vector IV
[34] = target: IgG1 heavy chain with CH3 construct 3 (K392D, K409D, K439D) (human) [IgG part: P01857]; test: native MS; transfection L: vectors IV+VII+VIII 1:1:1; AB = vector IV with vector VIII
[35] = target: IgG1 heavy chain with CH3 construct 1 (E356K, D399K) (human) [IgG part: P01857]; test: SDS-PAGE of protein A-purified supernatant; construct expressed alone
[36] = target: IgG1 heavy chain with CH3 construct 3 (K392D, K409D, K439D) (human) [IgG part: P01857]; test: native MS; transfection J: vectors IV+VII co-expressed 1:1
[37] = target: IgG1 heavy chain with CH3 construct 1 (E356K, D399K) (human) [IgG part: P01857]; test: native MS; transfection B: vector IV alone (thyroglobulin VH, construct 1)
[38] = target: IgG1 heavy chain with CH3 construct 1 (E356K, D399K) (human) [IgG part: P01857]; test: native MS; transfection S: vectors IV+V+VI 2:1:1; homodimer of vector IV
[39] = target: IgG1 heavy chain with CH3 construct 3 (K392D, K409D, K439D) (human) [IgG part: P01857]; test: native MS; transfection T: vectors IV+VII+VIII 2:1:1; BC = vector IV with vector VII
[40] = target: IgG1 heavy chain with CH3 construct 2 (K392D, K409D) (human) [IgG part: P01857]; test: native MS; transfection K: vectors IV+V+VI 1:1:1; BC = vector IV with vector V (fibrinogen VH)
[41] = target: IgG1 heavy chain with CH3 construct 2 (K392D, K409D) (human) [IgG part: P01857]; test: native MS; transfection S: vectors IV+V+VI 2:1:1; AB = vector IV with vector VI
[42] = target: IgG1 heavy chain with CH3 construct 3 (K392D, K409D, K439D) (human) [IgG part: P01857]; test: native MS; transfection L: vectors IV+VII+VIII 1:1:1; BC = vector IV with vector VII
[43] = target: IgG1 heavy chain with CH3 construct 2 (K392D, K409D) (human) [IgG part: P01857]
[44] = target: IgG1 heavy chain with CH3 construct 2 (K392D, K409D) (human) [IgG part: P01857]; test: native MS; transfection S: vectors IV+V+VI 2:1:1; BC = vector IV with vector V
[45] = target: IgG1 heavy chain with CH3 construct 2 (K392D, K409D) (human) [IgG part: P01857]; test: native MS (peak height); transfection #11 of Table 24; CC = C (fibrinogen)/1 with C/2
[46] = target: IgG1 heavy chain with CH3 construct 2 (K392D, K409D) (human) [IgG part: P01857]; test: native MS; transfection I: vectors IV+V co-expressed 1:1
[47] = target: IgG1 heavy chain with CH3 construct 3 (K392D, K409D, K439D) (human) [IgG part: P01857]; test: native MS; transfection T: vectors IV+VII+VIII 2:1:1; AB = vector IV with vector VIII
[48] = target: IgG1 heavy chain with CH3 construct 2 (K392D, K409D) (human) [IgG part: P01857]; test: native MS (peak height); transfection #9 of Table 24; CD = C (fibrinogen)/1 with D (RTK2)/2
[49] = target: IgG1 heavy chain with CH3 construct 66 (V397D) (human) [IgG part: P01857]; test: native MS; transfection ZR: vectors XV+XIX co-expressed
[50] = target: IgG1 heavy chain with CH3 construct 67 (K360D) (human) [IgG part: P01857]; test: native MS; transfection ZS: vectors XI+XX co-expressed

Substance: IgG1 heavy chain with CH3 construct 64 (T366D) (from UniProt P01857-1)
% IgG [1]: 89.6%
% half molecule [1]: 10.4%
CC found (%) [2]: 13%
% AA found [3]: 30%
% AB found [4]: 69%
% AB found [5]: 92%
% AA found [6]: 3%

% IgG [7]: 100%
% BB found [8]: 8%
Substance: IgG1 heavy chain with CH3 construct 72 (L351D, R355D) (from UniProt P01857-1)

CC found (%) [9]: 30%
CC found (%) [10]: 9%
CC found (%) [11]: 100%
CC found (%) [12]: 9%
CC found (%) [13]: 48%
Substance: IgG1 heavy chain with CH3 construct 5 (E356K, E357K, K439D, K370D) (from UniProt P01857-1)

BB found (%) [14]: 4%
BB found (%) [15]: 81%
BB found (%) [16]: 100%
BB found (%) [17]: 45%
Substance: IgG1 heavy chain with CH3 construct 4 (K392D, D399K, K409D) (from UniProt P01857-1)

AA found (%) [18]: 66%
AA found (%) [19]: 8%
AA found (%) [20]: 100%
AA found (%) [21]: 88%
AA found (%) [22]: 47%
AA found (%) [23]: 51%
Substance: IgG1 heavy chain with wildtype CH3 (construct vector MV1057, wildtype IgG1 Fc) (from UniProt P01857-1)

Substance: IgG1 heavy chain with CH3 construct 63 (L351D) (from UniProt P01857-1)
CC found (%) [24]: 2.4%
% IgG [25]: 89.8%
% half molecule [25]: 10.2%
CC found (%) [26]: 23%
CC found (%) [27]: 7%
% BB found [28]: 3%
CC found (%) [29]: 10%
% BB found [30]: 12%
CC found (%) [31]: 16%

Substance: IgG1 heavy chain with CH3 construct 65 (S354D, Y349D) (from UniProt P01857-1)
CC found (%) [32]: 33%

Substance: IgG1 heavy chain with CH3 construct 1 (E356K, D399K) (from UniProt P01857-1)
Other molecules (%) [33]: 3%
Bispecific found (%) [34]: 60%
% IgG [35]: 64.2%
% half molecule [35]: 35.8%
Bispecific found (%) [36]: 96%
Full IgG found (%) [37]: 60%
Half molecules found (%) [37]: 40%
Other molecules (%) [38]: 3%
Bispecific found (%) [39]: 58%
Bispecific found (%) [40]: 38%
Bispecific found (%) [41]: 55%
Bispecific found (%) [42]: 16%
Bispecific found (%) [43]: 47%
Bispecific found (%) [44]: 42%
percent of species in the mixture [45]: 61%
Bispecific found (%) [46]: 96%
Bispecific found (%) [47]: 39%
percent of species in the mixture [48]: 67%

Substance: IgG1 heavy chain with CH3 construct 66 (V397D) (from UniProt P01857-1)
CC found (%) [49]: 11%

Substance: IgG1 heavy chain with CH3 construct 67 (K360D) (from UniProt P01857-1)
CC found (%) [50]: 15%
